Results: patent US20220040304A1, “A COMPOSITION FOR CANCER CELL DEATH AND ITS USE” (Industry-University Cooperation Foundation Hanyang …, priority 2018, published 2022)

Legend:
[1] = test system: MDA-MB-435; assay: Cell death with Co-h substrate by cell type (SYTOX Green or EthD-1/DAPI); type: cell-based, human; settings: MDA-MB-435, protein 10 μM, Co-h 150 μM for 5 minutes
Protocol: (§1) The cells were seeded at 5×10^5 cells/mL in 96-well plates (SPL Cell Culture Plate, 96 well (SPL, Cat #30096)), and cultured at 37° C. for 24 hours (overnight). After the culture for 24 hours, the cells were washed with FBS & phenol red-free media, and 100 μL of FBS & phenol red-free media containing a purified protein (final concentration: 10 μM) was added, followed by reaction at 37° C. for 24 hours.
(§2) Subsequently, the cells were washed with FBS & phenol red-free media, and 100 μL of FBS & phenol red-free media was added. 100 μL of FBS & Phenol red-free media (RPMI) containing a Co-h substrate solution (final concentration: 150 μM) was added, followed by reaction at 37° C. for 5 minutes.
(§3) After the reaction, 50 μL of SYTOX Green (final concentration: 261 nM) or 90 μL of ethidium homodimer (EthD-1) (final concentration 1×), which stains DNA of dead cells, was added, followed by reaction at 37° C. for 30 minutes. 10 μL of DAPI staining DNA of live cells was added, followed by reaction for 5 minutes. Cell death was confirmed by observing KillerRed, SYTOX Green, MiniSOG, EthD-1 and DAPI fluorescence using a confocal microscope.

[2] = test system: MDA-MB-231; assay: as above; type: cell-based, human; settings: MDA-MB-231, protein 10 μM, Co-h 150 μM for 5 minutes
Protocol: as §1, §2, §3

[3] = test system: superoxide; assay: ROS generation: superoxide measured by decrease of DHE fluorescence; type: biochemical
Protocol: A ROS-generating effect of the RLuc8.6-KR protein was confirmed using 100 μL of buffer (50 mM HEPES-KOH, 24° C., pH 7.4) containing RLuc8.6-KR protein (final concentration: 10 μM), dihydroethidium (DHE, Sigma Aldrich, USA; final concentration of 100 μM) whose fluorescence intensity decreases in the presence of superoxide and a Co-h substrate solution. The rate of decrease in fluorescence intensity was measured at the excitation wavelength of 370 nm and the emission wavelength of 420 nm of DHE using a plate reader.
A ROS-generating effect of RLuc8.6-KR protein was measured using RLuc8.6-KR protein (final concentration: 10 μM) and DHE (final concentration: 100 μM) whose fluorescence intensity decreases in the presence of superoxide, and
Here, the active oxygen generation rate of each protein was measured using 100 μL of buffer (50 mM HEPES-KOH, 24° C., pH 7.4) containing FMN (final concentration: 150 μM) and a Co-h substrate solution (final concentration: 150 μM).
The rate of decrease in fluorescence intensity was measured at the excitation wavelength of 370 nm and the emission wavelength of 420 nm of DHE using a plate reader. In addition, the rate of decrease in fluorescence intensity was measured at the excitation wavelength of 380 nm and the emission wavelength of 430 nm of ADPA using a plate reader.
A ROS generation rate was measured using 100 μL of buffer (50 mM HEPES-KOH, 24° C., pH 7.4) containing the KR protein, RLuc8.6-KR protein (final concentration: 10 μM) and DHE (final concentration: 100 μM) whose fluorescence intensity decreases in the presence of superoxide.
A ROS generation rate was measured using 100 μL of buffer (50 mM HEPES-KOH, 24° C., pH 7.4) containing MS, RLuc8-MS (final concentration: 10 μM), DHE (final concentration: 100 μM) whose fluorescence intensity decreases in the presence of superoxide and FMN (final concentration: 150 μM).
After irradiation with light (referred to as +LED Light) at 10 mW/cm^2 for 30 minutes, the rate of decrease in fluorescence intensity was measured at the excitation wavelength of 370 nm and the emission wavelength of 420 nm of DHE using a plate reader.
A ROS generation rate was measured using 100 μL of buffer (50 mM HEPES-KOH, 24° C., pH 7.4) containing the KR protein, RLuc8.6-KR protein (final concentration: 10 μM), DHE (final concentration: 100 μM) whose fluorescence intensity decreases in the presence of superoxide and a Co-h substrate solution (final concentration: 150 μM).
A ROS generation rate was measured using 100 μL of buffer (50 mM HEPES-KOH, 24° C., pH 7.4) containing MS, RLuc8-MS (final concentration: 10 μM), DHE (final concentration: 100 μM) whose fluorescence intensity decreases in the presence of superoxide, FMN (final concentration: 150 μM) and a Co-h substrate solution (final concentration: 150 μM). The rate of decreasing fluorescence intensity was measured at an excitation wavelength of 370 nm and an emission wavelength of 420 nm of DHE using a plate reader.
A ROS generation rate was measured by reaction of 100 μL of buffer (50 mM HEPES-KOH, 24° C., pH 7.4) containing RLuc8.6-KR protein (final concentration: 10 μM), DHE (final concentration: 100 μM) whose fluorescence intensity decreases in the presence of superoxide, ROS scavenger (SOD (superoxide scavenger, final concentration 800U/ml), sodium azide (Singlet oxygen scavenger; final concentration: 100 mM) and D-mannitol (hydroxyl radical scavenger; final concentration: 100 mM), respectively) for 30 minutes. […]

Molecule	cell death with Co-h substrate [1]	cell death with Co-h substrate [2]	superoxide generation rate after Co-h substrate reaction ([3]; Co-h 150 μM, 30-min reaction, without light irradiation, protein 10 μM, DHE)	reaction time with Co-h until which the superoxide generation rate increased, then constantly maintained ([3]; protein 10 μM, Co-h 150 μM, DHE) [min]	Co-h concentration until which the superoxide generation rate increased, then constantly maintained ([3]; protein 10 μM, DHE 100 μM, substrate reaction time 5 minutes) [µM]	superoxide generation rate after light irradiation ([3]; 10 mW/cm^2, 30 minutes, no substrate, protein 10 μM, DHE)	superoxide generation rate by Co-h reaction after ROS scavenger treatment ([3]; RLuc8.6-KR 10 μM, Co-h 150 μM 30 minutes, SOD 800 U/ml, sodium azide 100 mM or D-mannitol 100 mM)
RLuc8.6-KR: fusion protein of RLuc8.6 and KillerRed without lead peptide, 69 kDa (protein, pRSET-RLuc8.6-KillerRed) MRGSHHHHHHGMASMTGGQQMGRDLYDDDDKDPMASKVYDPEQRKRMITGPQWWARCKQMNVLDSFINYYDSEKHAENAVIFLHGNATSSYLWRHVVPHIEPVARCIIPDLIGMGKSGKSGNGSYRLLDHYKYLTAWFELLNLPKKIIFVGHDWGSALAFHYAYEHQDRIKAIVHMESVVDVIESWMGWPDIEEELALIKSEEGEKMVLENNFFVETLLPSKIMRKLEPEEFAAYLEPFKEKGEVRRPTLSWPREIPLVKGGKPDVVQIVRNYNAYLRASDDLPKLFIESDPGFFYNAIVEGAKKFPNTEFVKVKGLHFLQEDAPDEMGKYIKSFVERVLKNEQEFGGGMLCCMRRTKQVEKNDEDQKISEGGPALFQSDMTFKIFIDGEVNGQKFTIVADGSSKFPHGDFNVHAVCETGKLPMSWKPICHLIQYGEPFFARYPDGISHFAQECFPEGLSIDRTVRFENDGTMTSHHTYELDDTCVVSRITVNCDGFQPDGPIMRDQLVDILPNETHMFPHGPNAVRQLAFIGFTTADGGLMMGHFDSKMTFNGSRAIEIPGPHFVTIITKQMRDTSDKRDHVCQREVAYAHSVPRITSAIGSDED	none of the six breast cancer cell lines were killed	none of the six breast cancer cell lines were killed	highest superoxide generation rate	30	150	–	–
KR: first protein KillerRed, ROS-generating protein (superoxide), expressed from pRSET-KillerRed, 31 kDa (protein, pRSET-KillerRed, first protein KillerRed, ROS-generating protein (superoxide), expressed from pRSET-KillerRed, 31 kDa) MRGSHHHHHHGMASMTGGQQMGRDLYDDDDKDPMLCCMRRTKQVEKNDEDQKISEGGPALFQSDMTFKIFIDGEVNGQKFTIVADGSSKFPHGDFNVHAVCETGKLPMSWKPICHLIQYGEPFFARYPDGISHFAQECFPEGLSIDRTVRFENDGTMTSHHTYELDDTCVVSRITVNCDGFQPDGPIMRDQLVDILPNETHMFPHGPNAVRQLAFIGFTTADGGLMMGHFDSKMTFNGSRAIEIPGPHFVTIITKQMRDTSDKRDHVCQREVAYAHSVPRITSAIGSDED	–	–	–	–	–	higher superoxide generation rate	lowest when SOD was treated
RLuc8.6-KR-LP: fusion protein of RLuc8.6, KillerRed and lead peptide WLEAAYQRFL, 71 kDa (protein, pRSET-RLuc8.6-KillerRed-Lead peptide) MRGSHHHHHHGMASMTGGQQMGRDLYDDDDKDPMASKVYDPEQRKRMITGPQWWARCKQMNVLDSFINYYDSEKHAENAVIFLHGNATSSYLWRHVVPHIEPVARCIIPDLIGMGKSGKSGNGSYRLLDHYKYLTAWFELLNLPKKIIFVGHDWGSALAFHYAYEHQDRIKAIVHMESVVDVIESWMGWPDIEEELALIKSEEGEKMVLENNFFVETLLPSKIMRKLEPEEFAAYLEPFKEKGEVRRPTLSWPREIPLVKGGKPDVVQIVRNYNAYLRASDDLPKLFIESDPGFFYNAIVEGAKKFPNTEFVKVKGLHFLQEDAPDEMGKYIKSFVERVLKNEQEFGGGMLCCMRRTKQVEKNDEDQKISEGGPALFQSDMTFKIFIDGEVNGQKFTIVADGSSKFPHGDFNVHAVCETGKLPMSWKPICHLIQYGEPFFARYPDGISHFAQECFPEGLSIDRTVRFENDGTMTSHHTYELDDTCVVSRITVNCDGFQPDGPIMRDQLVDILPNETHMFPHGPNAVRQLAFIGFTTADGGLMMGHFDSKMTFNGSRAIEIPGPHFVTIITKQMRDTSDKRDHVCQREVAYAHSVPRITSAIGSDEDGGGWLEAAYQRFL	killed them	killed them	–	–	–	–	–
